# Assay results published in patent US20160031977A1 (BETH ISRAEL DEACONESS MEDICAL CENTER, published 2016).
# Square brackets hold non-standard residues; d marks the D form. Ends that are not written are not given here. pT = C[C@@H](OP(=O)(O)O)[C@H](N)C(=O)O
# T1: pT231-tau peptide locked in trans (pT231-Ala)
# T1 construct: also called trans pT231-tau peptide
# T1 peptide: KVAVVR[pT]APKSPS
# B1: Cis mAb-#113 (antibody, V domains shown)
# VH: QVQLQQPGAELVKPGASVKMSCKASGYTFTSYWIHWVKQRPGQGLEWIGVIDPSDSYTRYNQKFKGKATLTVDTSSSTAYMQLSSLTSEDSAVYYCTTWEVDYWGQGTTLTVSS
# VL: DVVMTQTPLSLPVSLGDQASISCRSSQSLVHSDGNTYLHWYLQKPGQSPKLLIYKVSNRFSGVPDRFSGSGSGTDFTLKISRLEAEDLGVYFCSQSTHVPWTFGGGTKLEIKR
# notes: Mouse monoclonal antibody from a hybridoma, screened as culture supernatant; also called cis pT231-tau mouse mAb
# B2: Cis mAb-#74 (antibody, V domains shown)
# VH: DVQLQESGPGLVKPSQSLSLTCSVTGYSITSGYYWNWIRQFPGNKLEWMGYISYDGSNNYNPSLKNRISITRDTSKNQFFLKLNSVTTEDTATYYCAGLRRDAYWGQGTLVTVSA
# VL: DIQMTQTTSSLSASLGDRVTISCRASQDISNYLNWYQQKPDGTVKLLIYYTSRLHSGVPSRFSGSGSGTDYSLTISNLEQEDIATYFCQQGNTLPWTFGGGTKLEIKR
# notes: Mouse monoclonal antibody from a hybridoma, screened as culture supernatant; also called cis hybridoma clone #74; cis pT231-tau mouse mAb
# Molecular target: T1, pT231-tau peptide locked in trans …
# Test: ELISA, hybridoma culture supernatant on peptide
# Experimental: To develop cis and trans pT231-tau mouse mAbs, 74% cis pT231-Pip tau peptide as described previously in Nakamura et al., Cell 149: 232-244, 2012 was used to immunize mice. The procedure produced 480 hybridoma clones that were then characterized. […] The nucleic acid and protein sequences including the CDRs of the mAb heavy chain and light chain are shown below. […] The DNA sequences of the heavy and light chains of the mAbs were determined using 5′ RACE RT-PCR techniques, as described in Bradbury et al., Neurobiol Aging 16:465-475, 1995. […] Predicted protein sequences are highly conserved in Framework regions, with clear differences in complementary determining region (CDR) 1-3 (FIGS. 8 and 9).
row,binding result,Binder
1,no binding,B1
2,no binding,B2
